# Patent US12104181B2, “Compositions and methods for treating viral infections targeting TRIM7” (THE BOARD OF REGENTS OF THE UNIVERSITY OF TEXAS SYSTEM, priority 2021, dated 2024)
# B1: RNF113: human RING type E3 ligase expressed from lentiviral vector (protein, UniProt O15541 2-343, looked up)
# E3 ubiquitin-protein ligase …: AEQLSPGKAVDQVCTFLFKKPGRKGAAGRRKRPACDPEPGESGSSSDEGCTVVRPEKKRVTHNPMIQKTRDSGKQKAAYGDLSSEEEEENEPESLGVVYKSTRSAKPVGPEDMGATAVYELDTEKERDAQAIFERSQKIQEELRGKEDDKIYRGINNYQKYMKPKDTSMGNASSGMVRKGPIRAPEHLRATVRWDYQPDICKDYKETGFCGFGDSCKFLHDRSDYKHGWQIERELDEGRYGVYEDENYEVGSDDEEIPFKCFICRQSFQNPVVTKCRHYFCESCALQHFRTTPRCYVCDQQTNGVFNPAKELIAKLEKHRATGEGGASDLPEDPDEDAIPIT
# B2: TRIM1: human RING type E3 ligase expressed from lentiviral vector (protein, UniProt Q9UJV3 1-735, looked up)
# Probable E3 ubiquitin-protein …: MGESPASVVLNASGGLFSLKMETLESELTCPICLELFEDPLLLPCAHSLCFSCAHRILVSSCSSGESIEPITAFQCPTCRYVISLNHRGLDGLKRNVTLQNIIDRFQKASVSGPNSPSESRRERTYRPTTAMSSERIACQFCEQDPPRDAVKTCITCEVSYCDRCLRATHPNKKPFTSHRLVEPVPDTHLRGITCLDHENEKVNMYCVSDDQLICALCKLVGRHRDHQVASLNDRFEKLKQTLEMNLTNLVKRNSELENQMAKLIQICQQVEVNTAMHEAKLMEECDELVEIIQQRKQMIAVKIKETKVMKLRKLAQQVANCRQCLERSTVLINQAEHILKENDQARFLQSAKNIAERVAMATASSQVLIPDINFNDAFENFALDFSREKKLLEGLDYLTAPNPPSIREELCTASHDTITVHWISDDEFSISSYELQYTIFTGQANFISKSWCSWGLWPEIRKCKEAVSCSRLAGAPRGLYNSVDSWMIVPNIKQNHYTVHGLQSGTRYIFIVKAINQAGSRNSEPTRLKTNSQPFKLDPKMTHKKLKISNDGLQMEKDESSLKKSHTPERFSGTGCYGAAGNIFIDSGCHYWEVVMGSSTWYAIGIAYKSAPKNEWIGKNASSWVFSRCNSNFVVRHNNKEMLVDVPPHLKRLGVLLDYDNNMLSFYDPANSLHLHTFDVTFILPVCPTFTIWNKSLMILSGLPAPDFIDYPERQECNCRPQESPYVSGMKTCH
# B3: TRIM2: human RING type E3 ligase expressed from lentiviral vector (protein, UniProt Q9C040 1-744, looked up)
# Tripartite motif-containing …: MASEGTNIPSPVVRQIDKQFLICSICLERYKNPKVLPCLHTFCERCLQNYIPAHSLTLSCPVCRQTSILPEKGVAALQNNFFITNLMDVLQRTPGSNAEESSILETVTAVAAGKPLSCPNHDGNVMEFYCQSCETAMCRECTEGEHAEHPTVPLKDVVEQHKASLQVQLDAVNKRLPEIDSALQFISEIIHQLTNQKASIVDDIHSTFDELQKTLNVRKSVLLMELEVNYGLKHKVLQSQLDTLLQGQESIKSCSNFTAQALNHGTETEVLLVKKQMSEKLNELADQDFPLHPRENDQLDFIVETEGLKKSIHNLGTILTTNAVASETVATGEGLRQTIIGQPMSVTITTKDKDGELCKTGNAYLTAELSTPDGSVADGEILDNKNGTYEFLYTVQKEGDFTLSLRLYDQHIRGSPFKLKVIRSADVSPTTEGVKRRVKSPGSGHVKQKAVKRPASMYSTGKRKENPIEDDLIFRVGTKGRNKGEFTNLQGVAASTNGKILIADSNNQCVQIFSNDGQFKSRFGIRGRSPGQLQRPTGVAVHPSGDIIIADYDNKWVSIFSSDGKFKTKIGSGKLMGPKGVSVDRNGHIIVVDNKACCVFIFQPNGKIVTRFGSRGNGDRQFAGPHFAAVNSNNEIIITDFHNHSVKVFNQEGEFMLKFGSNGEGNGQFNAPTGVAVDSNGNIIVADWGNSRIQVFDGSGSFLSYINTSADPLYGPQGLALTSDGHVVVADSGNHCFKVYRYLQ
# B4: TRIM4: human RING type E3 ligase expressed from lentiviral vector (protein, UniProt Q9C037 1-500, looked up)
# E3 ubiquitin-protein ligase …: MEAEDIQEELTCPICLDYFQDPVSIECGHNFCRGCLHRNWAPGGGPFPCPECRHPSAPAALRPNWALARLTEKTQRRRLGPVPPGLCGRHWEPLRLFCEDDQRPVCLVCRESQEHQTHAMAPIDEAFESYRTGNFDIHVDEWKRRLIRLLLYHFKQEEKLLKSQRNLVAKMKKVMHLQDVEVKNATQWKDKIKSQRMRISTEFSKLHNFLVEEEDLFLQRLNKEEEETKKKLNENTLKLNQTIASLKKLILEVGEKSQAPTLELLQNPKEVLTRSEIQDVNYSLEAVKVKTVCQIPLMKEMLKRFQVAVNLAEDTAHPKLVFSQEGRYVKNTASASSWPVFSSAWNYFAGWRNPQKTAFVERFQHLPCVLGKNVFTSGKHYWEVESRDSLEVAVGVCREDVMGITDRSKMSPDVGIWAIYWSAAGYWPLIGFPGTPTQQEPALHRVGVYLDRGTGNVSFYSAVDGVHLHTFSCSSVSRLRPFFWLSPLASLVIPPVTDRK
# B5: TRIM6: human RING type E3 ligase expressed from lentiviral vector (protein, UniProt Q9C030 1-488, looked up)
# Tripartite motif-containing …: MTSPVLVDIREEVTCPICLELLTEPLSIDCGHSFCQACITPNGRESVIGQEGERSCPVCQTSYQPGNLRPNRHLANIVRRLREVVLGPGKQLKAVLCADHGEKLQLFCQEDGKVICWLCERSQEHRGHHTFLVEEVAQEYQEKFQESLKKLKNEEQEAEKLTAFIREKKTSWKNQMEPERCRIQTEFNQLRNILDRVEQRELKKLEQEEKKGLRIIEEAENDLVHQTQSLRELISDLERRCQGSTMELLQDVSDVTERSEFWTLRKPEALPTKLRSMFRAPDLKRMLRVCRELTDVQSYWVDVTLNPHTANLNLVLAKNRRQVRFVGAKVSGPSCLEKHYDCSVLGSQHFSSGKHYWEVDVAKKTAWILGVCSNSLGPTFSFNHFAQNHSAYSRYQPQSGYWVIGLQHNHEYRAYEDSSPSLLLSMTVPPRRVGVFLDYEAGTVSFYNVTNHGFPIYTFSKYYFPTTLCPYFNPCNCVIPMTLRRPSS
# B6: TRIM8: human RING type E3 ligase expressed from lentiviral vector (protein, UniProt Q9BZR9 1-551, looked up)
# E3 ubiquitin-protein ligase …: MAENWKNCFEEELICPICLHVFVEPVQLPCKHNFCRGCIGEAWAKDSGLVRCPECNQAYNQKPGLEKNLKLTNIVEKFNALHVEKPPAALHCVFCRRGPPLPAQKVCLRCEAPCCQSHVQTHLQQPSTARGHLLVEADDVRAWSCPQHNAYRLYHCEAEQVAVCQYCCYYSGAHQGHSVCDVEIRRNEIRKMLMKQQDRLEEREQDIEDQLYKLESDKRLVEEKVNQLKEEVRLQYEKLHQLLDEDLRQTVEVLDKAQAKFCSENAAQALHLGERMQEAKKLLGSLQLLFDKTEDVSFMKNTKSVKILMDRTQTCTSSSLSPTKIGHLNSKLFLNEVAKKEKQLRKMLEGPFSTPVPFLQSVPLYPCGVSSSGAEKRKHSTAFPEASFLETSSGPVGGQYGAAGTASGEGQSGQPLGPCSSTQHLVALPGGAQPVHSSPVFPPSQYPNGSAAQQPMLPQYGGRKILVCSVDNCYCSSVANHGGHQPYPRSGHFPWTVPSQEYSHPLPPTPSVPQSLPSLAVRDWLDASQQPGHQDFYRVYGQPSTKHYVTS
# B7: TRIM9: human RING type E3 ligase expressed from lentiviral vector (protein, UniProt Q9C026 1-710, looked up)
# E3 ubiquitin-protein ligase …: MEEMEEELKCPVCGSFYREPIILPCSHNLCQACARNILVQTPESESPQSHRAAGSGVSDYDYLDLDKMSLYSEADSGYGSYGGFASAPTTPCQKSPNGVRVFPPAMPPPATHLSPALAPVPRNSCITCPQCHRSLILDDRGLRGFPKNRVLEGVIDRYQQSKAAALKCQLCEKAPKEATVMCEQCDVFYCDPCRLRCHPPRGPLAKHRLVPPAQGRVSRRLSPRKVSTCTDHELENHSMYCVQCKMPVCYQCLEEGKHSSHEVKALGAMWKLHKSQLSQALNGLSDRAKEAKEFLVQLRNMVQQIQENSVEFEACLVAQCDALIDALNRRKAQLLARVNKEHEHKLKVVRDQISHCTVKLRQTTGLMEYCLEVIKENDPSGFLQISDALIRRVHLTEDQWGKGTLTPRMTTDFDLSLDNSPLLQSIHQLDFVQVKASSPVPATPILQLEECCTHNNSATLSWKQPPLSTVPADGYILELDDGNGGQFREVYVGKETMCTVDGLHFNSTYNARVKAFNKTGVSPYSKTLVLQTSEVAWFAFDPGSAHSDIILSNDNLTVTCSSYDDRVVLGKTGFSKGIHYWELTVDRYDNHPDPAFGVARMDVMKDVMLGKDDKAWAMYVDNNRSWFMHNNSHTNRTEGGITKGATIGVLLDLNRKNLTFFINDEQQGPIAFDNVEGLFFPAVSLNRNVQVTLHTGLPVPDFYSSRASIA
# B8: RNF141: human RING type E3 ligase expressed from lentiviral vector (protein, UniProt Q8WVD5 2-230, looked up)
# RING finger protein 141: GQQISDQTQLVINKLPEKVAKHVTLVRESGSLTYEEFLGRVAELNDVTAKVASGQEKHLLFEVQPGSDSSAFWKVVVRVVCTKINKSSGIVEASRIMNLYQFIQLYKDITSQAAGVLAQSSTSEEPDENSSSVTSCQASLWMGRVKQLTDEEECCICMDGRADLILPCAHSFCQKCIDKWSDRHRNCPICRLQMTGANESWVVSDAPTEDDMANYILNMADEAGQPHRP
# B9: TRIM10: human RING type E3 ligase expressed from lentiviral vector (protein, UniProt Q9UDY6 1-481, looked up)
# Tripartite motif-containing …: MASAASVTSLADEVNCPICQGTLREPVTIDCGHNFCRACLTRYCEIPGPDLEESPTCPLCKEPFRPGSFRPNWQLANVVENIERLQLVSTLGLGEEDVCQEHGEKIYFFCEDDEMQLCVVCREAGEHATHTMRFLEDAAAPYREQIHKCLKCLRKEREEIQEIQSRENKRMQVLLTQVSTKRQQVISEFAHLRKFLEEQQSILLAQLESQDGDILRQRDEFDLLVAGEICRFSALIEELEEKNERPARELLTDIRSTLIRCETRKCRKPVAVSPELGQRIRDFPQQALPLQREMKMFLEKLCFELDYEPAHISLDPQTSHPKLLLSEDHQRAQFSYKWQNSPDNPQRFDRATCVLAHTGITGGRHTWVVSIDLAHGGSCTVGVVSEDVQRKGELRLRPEEGVWAVRLAWGFVSALGSFPTRLTLKEQPRQVRVSLDYEVGWVTFTNAVTREPIYTFTASFTRKVIPFFGLWGRGSSFSLSS
# modifications: lentiviral expression
# notes: human RING type E3 ligase expressed from lentiviral vector
# System: coxsackievirus B3 (CVB3-GFP)
# Assay type: cell-based
# Conditions: HeLa cells, GFP-positive cells within RFP-positive gate, replicate R1
row,Molecule,Percent Infected R1 [%]
1,B1,92
2,B2,82.1
3,B3,62.1
4,B4,67.8
5,B5,67.4
6,B6,70.1
7,B7,81.3
8,B8,87.2
9,B9,58.7

# Same assay, conditions: HeLa cells, replicate R1
row,Molecule,Z score R1
1,B1,0.043
2,B2,−0.083
3,B3,−0.337
4,B4,−0.265
5,B5,−0.27
6,B6,−0.235
7,B7,−0.093
8,B8,−0.02
9,B9,−0.38
